Reference: publication PMC2139755
“And” between values parts separate entries of the source, which are not always exact repeats. Equal values may be shown once. Read-outs that look alike come from different tables or passages of the source.

Legend:
Assay in all cases: radioligand binding
[1] = target: receptor for IgE on rat basophilic leukemia cells (RBL-1 cells) (rat (endogenous in RBL-1)) (UniProt P12371)
[2] = target: receptor for IgE on rat basophilic leukemia cells (RBL-1 cells) (rat (endogenous in RBL-1)) (UniProt P12371); remark: listed apart in the source
[3] = target: receptor for IgE on rat basophilic leukemia cells (RBL-1 cells) (rat (endogenous in RBL-1)) (UniProt P12371); remark: listed apart in the source

Sequence of UniProt P12371 (P12371 24-245, chain 1 of 3): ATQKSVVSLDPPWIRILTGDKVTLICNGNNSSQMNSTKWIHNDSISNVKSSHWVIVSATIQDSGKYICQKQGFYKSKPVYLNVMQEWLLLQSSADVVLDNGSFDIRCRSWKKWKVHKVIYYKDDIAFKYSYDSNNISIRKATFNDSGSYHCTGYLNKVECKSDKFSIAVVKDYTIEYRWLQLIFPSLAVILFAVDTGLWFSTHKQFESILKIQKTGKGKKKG
Sequence of UniProt P12371 (P13386 whole entry, chain 2 of 3, further chain): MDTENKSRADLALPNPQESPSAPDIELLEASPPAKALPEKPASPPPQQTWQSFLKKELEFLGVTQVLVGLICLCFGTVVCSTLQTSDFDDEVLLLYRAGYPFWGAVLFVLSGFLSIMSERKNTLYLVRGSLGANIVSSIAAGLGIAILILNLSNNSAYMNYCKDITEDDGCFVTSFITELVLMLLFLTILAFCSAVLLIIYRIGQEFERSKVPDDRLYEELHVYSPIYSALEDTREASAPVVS
Sequence of UniProt P12371 (P20411 19-86, chain 3 of 3, further chain): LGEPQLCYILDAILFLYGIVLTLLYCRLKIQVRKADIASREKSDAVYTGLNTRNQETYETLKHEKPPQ

Ka [1]: 1.2e+09 M⁻¹
koff [1]: 1.7e-05 s⁻¹
kon [1]: 21000 M⁻¹ s⁻¹
Ka [2]: > 6e+09 M⁻¹ and 6e+09 M⁻¹
half-life of dissociation [2]: 12 h
koff [2]: 1.6e-05 s⁻¹ and 1.4e-05 s⁻¹
percent of the labeled protein bound (active fraction) [2]: 70 to 80%
relative binding at 15 min (% of no additive), Ca++ 2 mM [2]: 92%
relative binding at 15 min (% of no additive), Ca++ 4 mM [2]: 88%
relative binding at 15 min (% of no additive), Ca++ 8 mM [2]: 80%
relative binding at 15 min (% of no additive), Ca++ and Mg++ 2, 2 mM [2]: 86%
relative binding at 15 min (% of no additive), EDTA 4 mM [2]: 98%
relative binding at 15 min (% of no additive), EDTA (4 mM) plus Ca++ 2 mM [2]: 78%
relative binding at 15 min (% of no additive), EDTA (4 mM) plus Ca++ 4 mM [2]: 43%
relative binding at 15 min (% of no additive), EDTA (4 mM) plus Mg++ 2 mM [2]: 85%
relative binding at 15 min (% of no additive), EDTA (4 mM) plus Mg++ 8 mM [2]: 44%
relative binding at 15 min (% of no additive), Mg++ 2 mM [2]: 93%
relative binding at 15 min (% of no additive), Mg++ 4 mM [2]: 89%
relative binding at 15 min (% of no additive), Mg++ 8 mM [2]: 82%
relative binding at 20 min (% of no additive), Al2(SO4)3 0.7 x 10^-7 M [2]: 110%
relative binding at 20 min (% of no additive), Al2(SO4)3 7.0 x 10^-7 M [2]: 108%
relative binding at 20 min (% of no additive), Al2(SO4)3 70 x 10^-7 M [2]: 105%
relative binding at 20 min (% of no additive), heparin 3.3 ug/ml [2]: 101%
relative binding at 20 min (% of no additive), heparin 10 ug/ml [2]: 110%
relative binding at 20 min (% of no additive), heparin 30 ug/ml [2]: 102%
relative binding at 20 min (% of no additive), human serum albumin 0.3 mg/ml [2]: 93%
relative binding at 20 min (% of no additive), phosphatidyl serine 12.5 ug/ml [2]: 105%
relative binding at 20 min (% of no additive), phosphatidyl serine 50 ug/ml [2]: 116%
relative binding at 20 min (% of no additive), phosphatidyl serine 200 ug/ml [2]: 135%
relative binding at 60 min (% of no additive), Al2(SO4)3 0.7 x 10^-7 M [2]: 101%
relative binding at 60 min (% of no additive), Al2(SO4)3 7.0 x 10^-7 M [2]: 97%
relative binding at 60 min (% of no additive), Al2(SO4)3 70 x 10^-7 M [2]: 96%
relative binding at 60 min (% of no additive), heparin 3.3 ug/ml [2]: 99%
relative binding at 60 min (% of no additive), heparin 10 ug/ml [2]: 97%
relative binding at 60 min (% of no additive), heparin 30 ug/ml [2]: 101%
relative binding at 60 min (% of no additive), human serum albumin 0.3 mg/ml [2]: 99%
relative binding at 60 min (% of no additive), phosphatidyl serine 12.5 ug/ml [2]: 112%
relative binding at 60 min (% of no additive), phosphatidyl serine 50 ug/ml [2]: 114%
relative binding at 60 min (% of no additive), phosphatidyl serine 200 ug/ml [2]: 121%
relative binding at 61 min (% of no additive), Ca++ 2 mM [2]: 95%
relative binding at 61 min (% of no additive), Ca++ 4 mM [2]: 91%
relative binding at 61 min (% of no additive), Ca++ 8 mM [2]: 85%
relative binding at 61 min (% of no additive), Ca++ and Mg++ 2, 2 mM [2]: 70%
relative binding at 61 min (% of no additive), EDTA 4 mM [2]: 96%
relative binding at 61 min (% of no additive), EDTA (4 mM) plus Ca++ 2 mM [2]: 88%
relative binding at 61 min (% of no additive), EDTA (4 mM) plus Ca++ 4 mM [2]: 46%
relative binding at 61 min (% of no additive), EDTA (4 mM) plus Mg++ 2 mM [2]: 97%
relative binding at 61 min (% of no additive), EDTA (4 mM) plus Mg++ 8 mM [2]: 53%
relative binding at 61 min (% of no additive), Mg++ 2 mM [2]: 70%
relative binding at 61 min (% of no additive), Mg++ 4 mM [2]: 64%
relative binding at 61 min (% of no additive), Mg++ 8 mM [2]: 62%
Ka [3]: 1.2e+10 M⁻¹
koff [3]: 4.7e-06 s⁻¹
kon [3]: 57000 M⁻¹ s⁻¹
Substance: [125I]IgE (IR 162), 125I-labeled rat IgE myeloma protein (antibody)
